Assay results from paper PMC5442324, “Zinc is a potent and specific inhibitor of IFN-λ3 signalling” (Nature Communications, 2017).

Columns and labels:
IFN-α (Roferon-A) = IFN-α (Roferon-A) (UniProt P01563); assay: zinc IMAC resin binding and SDS-PAGE; 200 ng IFN-α or IFN-λ3 on IMAC-Select gel charged with ZnSO4, 4 °C, 50 mM NaH2PO4, 300 mM NaCl, pH 8.0; eluted with 100 mM EDTA; SDS-PAGE, SYPRO ruby; bands read as monomer and dimer
[1] = biological target: the molecule itself; assay: as above

Row | stoichiometry N (IFN-α (Roferon-A)) | Molecule | stoichiometry N [1]
1 | 2 | IFN-α (Roferon-A) (from UniProt P01563 24-188) (ligand) | 
2 |  | recombinant human IFN-λ3 (ligand, UniProt Q8IZI9 22-196, looked up, IFN-λ3 (interferon lambda 3), human, recombinant, R&D Systems; (Cys169); also called interferon lambda 3; IFNL3; source: bought: R&D Systems) VPVARLRGALPDARGCHIAQFKSLSPQELQAFKRAKDALEESLLLKDCKCRSRLFPRTWDLRQLQVRERPVALEAELALTLKVLEATADTDPALGDVLDQPLHTLHHILSQLRACIQPQPTAGPRTRGRLHHWLHRLQEAPKKESPGCLEASVTFNLFRLLTRDLNCVASGDLCV | 2
